Reference: article PMC9953421, “Regulation of CRISPR-Associated Genes by Rv1776c (CasR) in Mycobacterium tuberculosis”

T1: CasR (Rv1776c) (UniProt O33179 1-186)
T1 sequence: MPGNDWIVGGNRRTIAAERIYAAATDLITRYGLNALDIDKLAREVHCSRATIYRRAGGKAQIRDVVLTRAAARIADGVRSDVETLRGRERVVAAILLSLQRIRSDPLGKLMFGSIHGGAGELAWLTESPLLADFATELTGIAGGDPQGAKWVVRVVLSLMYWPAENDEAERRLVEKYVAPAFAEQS


Molecular target: T1, CasR (Rv1776c)
Experiment: EMSA; 0-2 uM protein
Conditions: protein: recombinant; tags: N-terminal His (pET28a); chain copies: 2

| Binder | binding result |
| --- | --- |
| csm6p2 (dsDNA) DNA 1: CGATCAGGAAAACAATTAGACGCAGGGGC DNA 2: GCCCCTGCGTCTAATTGTTTTCCTGATCG | no binding |
| casRp4 (dsDNA) DNA 1: AATAGCGCCCCGTTGTTAGACTAGATGA DNA 2: TCATCTAGTCTAACAACGGGGCGCTATT | no binding |
